Results taken from the Human Domainome abundance scans (Beltran et al. 2025).

B1: Homeobox protein cut-like 1, residues 548 to 629; numbered along this chain, P39880 (parent)
chain: GEEMDTAEIARQVKEQLIKHNIGQRIFGHYVLGLSQGSVSEILARPKPWNKLTVRGKEPFHKMKQFLSDEQNILALRSIQGR

Variants of: B1
Experiment: abundance fitness (aPCA) (normalised: wild type 0, dead -1); higher = more abundant; growth selection in yeast, the domain comes from the species named
Details: Homo sapiens

Abundance fitness, by site and new letter:
R25: G 0.082, S 0.078, D 0.138, A 0.102, V -0.088, F -0.096, K 0.022, E 0.158, I -0.122, H 0.059, M -0.079, Y -0.003, T 0.036, Q 0.019, P -0.068, L -0.192, W -0.072, N 0.017
I18: Y 0.008, E 0.064, H -0.052, C 0.014, V 0, F 0.085, G -0.105, A 0.007, K 0.075, L -0.031, Q 0.084, N 0.012, W -0.13, M -0.005, S 0.014
F27: L -0.47, G -0.894, M -0.857, A -1.01, H -1.14, C -1.03, I -0.8, E -0.906, D -0.862, K -0.99
Q24: T -0.069, P -0.079, R -0.159, W 0.025, H 0.021, Y -0.013, V 0.043, C -0.108, G -0.386, M -0.032, E 0.053, N -0.069, S -0.118, A -0.129, D -0.091, F -0.094, I -0.032
I26: C -0.058, K -0.152, M -0.082, P -0.517, F -0.078, W -0.083, S -0.14, H -0.056, L -0.002, T 0.009, V 0.034, A -0.056, D 0.023, Y -0.107, G -0.547, R -0.401, N -0.261
G23: M -0.12, A -0.004, D 0.114, N 0.105, T -0.013, Y -0.108, Q 0.043, V -0.196, S 0.023, R -0.068, K 0.012, F -0.293, C -0.054, P 0.08, L -0.081, H -0.009, I -0.309, W -0.268
L17: Q -0.612, R -0.609, W -0.808, V -0.665, S -0.635, T -0.518, Y -0.842
H20: A -0.348, I -0.601, T -0.608, P -0.677, W -0.074, V -0.6, G -0.584, S -0.398, D -0.722, N -0.178, C -0.466, F -0.029, E -0.503, K -0.391, R -0.464, L -0.361
I22: C -0.491, F -0.49, Y -0.916, T -0.687, V -0.071, D -0.941, L -0.239, Q -0.797, M -0.612, K -0.931, P -0.718, G -0.86, N -0.701, S -0.801
N21: A -0.151, Q -0.021, Y -0.469, S -0.084, W -0.759, K -0.055, D -0.03, I -1.06, F -0.534, V -0.518, M -0.378, R -0.115, P -0.72, C -0.181, E -0.04, T -0.305, H 0.009, G 0.025
K19: A -0.171, G -0.513, P -0.763, H 0.029, R -0.117, E -0.26, Q -0.18, W -0.618, N -0.216, L -0.201, Y -0.242, F -0.187, D -0.344, V -0.271, C -0.363, M -0.293, I -0.244
